# In IntAct's records for PubMed 22770219:
# B1: Cadherin-1 (Mus musculus), P09803 (parent)
# chain: MGARCRSFSALLLLLQVSSWLCQELEPESCSPGFSSEVYTFPVPERHLERGHVLGRVRFEGCTGRPRTAFFSEDSRFKVATDGTITVKRHLKLHKLETSFLVRARDSSHRELSTKVTLKSMGHHHHRHHHRDPASESNPELLMFPSVYPGLRRQKRDWVIPPISCPENEKGEFPKNLVQIKSNRDKETKVFYSITGQGADKPPVGVFIIERETGWLKVTQPLDREAIAKYILYSHAVSSNGEAVEDPMEIVITVTDQNDNRPEFTQEVFEGSVAEGAVPGTSVMKVSATDADDDVNTYNAAIAYTIVSQDPELPHKNMFTVNRDTGVISVLTSGLDRESYPTYTLVVQAADLQGEGLSTTAKAVITVKDINDNAPVFNPSTYQGQVPENEVNARIATLKVTDDDAPNTPAWKAVYTVVNDPDQQFVVVTDPTTNDGILKTAKGLDFEAKQQYILHVRVENEEPFEGSLVPSTATVTVDVVDVNEAPIFMPAERRVEVPEDFGVGQEITSYTAREPDTFMDQKITYRIWRDTANWLEINPETGAIFTRAEMDREDAEHVKNSTYVALIIATDDGSPIATGTGTLLLVLLDVNDNAPIPEPRNMQFCQRNPQPHIITILDPDLPPNTSPFTAELTHGASVNWTIEYNDAAQESLILQPRKDLEIGEYKIHLKLADNQNKDQVTTLDVHVCDCEGTVNNCMKAGIVAAGLQVPAILGILGGILALLILILLLLLFLRRRTVVKEPLLPPDDDTRDNVYYYDEEGGGEEDQDFDLSQLHRGLDARPEVTRNDVAPTLMSVPQYRPRPANPDEIGNFIDENLKAADSDPTAPPYDSLLVFDYEGSGSEAASLSSLNSSESDQDQDYDYLNEWGNRFKKLADMYGGGEDD
# Variants of: B1
# Details: with skp2_human SKP2, Q13309
# skp2_human SKP2, Q13309, sequence (Q13309 whole entry): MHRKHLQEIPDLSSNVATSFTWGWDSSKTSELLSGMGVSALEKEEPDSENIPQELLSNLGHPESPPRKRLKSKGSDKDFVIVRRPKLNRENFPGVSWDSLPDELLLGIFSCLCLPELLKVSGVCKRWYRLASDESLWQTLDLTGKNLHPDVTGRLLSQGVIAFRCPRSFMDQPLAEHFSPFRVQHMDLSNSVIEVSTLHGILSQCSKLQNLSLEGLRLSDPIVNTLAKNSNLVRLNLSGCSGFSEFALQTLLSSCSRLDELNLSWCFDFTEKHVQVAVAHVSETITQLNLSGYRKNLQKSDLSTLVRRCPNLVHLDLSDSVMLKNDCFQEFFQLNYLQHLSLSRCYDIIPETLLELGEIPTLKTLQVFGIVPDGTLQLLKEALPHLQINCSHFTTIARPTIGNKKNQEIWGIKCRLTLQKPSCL
row,Variant,effect of a mutation on the interaction
1,S840A;S842A;S846A;S849A;S852A;S855A,decreasing interaction strength
